Test [1] has as its target LDL receptor-related protein 1 (LRP1), purified from human placenta (human) (UniProt Q07954). The experiment in a line: SPR equilibrium analysis, LRP1 immobilised.
The target is the same in test [2]. Kind of test: SPR equilibrium KD relative to I91L PAI-1.

Data on one substance can be found in patent US20220372111A1.

pKd: −log10 of the molar value.

As a reminder, the pKd is −log10 of the Kd, conventionally taken in molar units. Low values mean a high Kd, high ones a low Kd.

UniProt Q07954, sequence (Q07954 20-4544): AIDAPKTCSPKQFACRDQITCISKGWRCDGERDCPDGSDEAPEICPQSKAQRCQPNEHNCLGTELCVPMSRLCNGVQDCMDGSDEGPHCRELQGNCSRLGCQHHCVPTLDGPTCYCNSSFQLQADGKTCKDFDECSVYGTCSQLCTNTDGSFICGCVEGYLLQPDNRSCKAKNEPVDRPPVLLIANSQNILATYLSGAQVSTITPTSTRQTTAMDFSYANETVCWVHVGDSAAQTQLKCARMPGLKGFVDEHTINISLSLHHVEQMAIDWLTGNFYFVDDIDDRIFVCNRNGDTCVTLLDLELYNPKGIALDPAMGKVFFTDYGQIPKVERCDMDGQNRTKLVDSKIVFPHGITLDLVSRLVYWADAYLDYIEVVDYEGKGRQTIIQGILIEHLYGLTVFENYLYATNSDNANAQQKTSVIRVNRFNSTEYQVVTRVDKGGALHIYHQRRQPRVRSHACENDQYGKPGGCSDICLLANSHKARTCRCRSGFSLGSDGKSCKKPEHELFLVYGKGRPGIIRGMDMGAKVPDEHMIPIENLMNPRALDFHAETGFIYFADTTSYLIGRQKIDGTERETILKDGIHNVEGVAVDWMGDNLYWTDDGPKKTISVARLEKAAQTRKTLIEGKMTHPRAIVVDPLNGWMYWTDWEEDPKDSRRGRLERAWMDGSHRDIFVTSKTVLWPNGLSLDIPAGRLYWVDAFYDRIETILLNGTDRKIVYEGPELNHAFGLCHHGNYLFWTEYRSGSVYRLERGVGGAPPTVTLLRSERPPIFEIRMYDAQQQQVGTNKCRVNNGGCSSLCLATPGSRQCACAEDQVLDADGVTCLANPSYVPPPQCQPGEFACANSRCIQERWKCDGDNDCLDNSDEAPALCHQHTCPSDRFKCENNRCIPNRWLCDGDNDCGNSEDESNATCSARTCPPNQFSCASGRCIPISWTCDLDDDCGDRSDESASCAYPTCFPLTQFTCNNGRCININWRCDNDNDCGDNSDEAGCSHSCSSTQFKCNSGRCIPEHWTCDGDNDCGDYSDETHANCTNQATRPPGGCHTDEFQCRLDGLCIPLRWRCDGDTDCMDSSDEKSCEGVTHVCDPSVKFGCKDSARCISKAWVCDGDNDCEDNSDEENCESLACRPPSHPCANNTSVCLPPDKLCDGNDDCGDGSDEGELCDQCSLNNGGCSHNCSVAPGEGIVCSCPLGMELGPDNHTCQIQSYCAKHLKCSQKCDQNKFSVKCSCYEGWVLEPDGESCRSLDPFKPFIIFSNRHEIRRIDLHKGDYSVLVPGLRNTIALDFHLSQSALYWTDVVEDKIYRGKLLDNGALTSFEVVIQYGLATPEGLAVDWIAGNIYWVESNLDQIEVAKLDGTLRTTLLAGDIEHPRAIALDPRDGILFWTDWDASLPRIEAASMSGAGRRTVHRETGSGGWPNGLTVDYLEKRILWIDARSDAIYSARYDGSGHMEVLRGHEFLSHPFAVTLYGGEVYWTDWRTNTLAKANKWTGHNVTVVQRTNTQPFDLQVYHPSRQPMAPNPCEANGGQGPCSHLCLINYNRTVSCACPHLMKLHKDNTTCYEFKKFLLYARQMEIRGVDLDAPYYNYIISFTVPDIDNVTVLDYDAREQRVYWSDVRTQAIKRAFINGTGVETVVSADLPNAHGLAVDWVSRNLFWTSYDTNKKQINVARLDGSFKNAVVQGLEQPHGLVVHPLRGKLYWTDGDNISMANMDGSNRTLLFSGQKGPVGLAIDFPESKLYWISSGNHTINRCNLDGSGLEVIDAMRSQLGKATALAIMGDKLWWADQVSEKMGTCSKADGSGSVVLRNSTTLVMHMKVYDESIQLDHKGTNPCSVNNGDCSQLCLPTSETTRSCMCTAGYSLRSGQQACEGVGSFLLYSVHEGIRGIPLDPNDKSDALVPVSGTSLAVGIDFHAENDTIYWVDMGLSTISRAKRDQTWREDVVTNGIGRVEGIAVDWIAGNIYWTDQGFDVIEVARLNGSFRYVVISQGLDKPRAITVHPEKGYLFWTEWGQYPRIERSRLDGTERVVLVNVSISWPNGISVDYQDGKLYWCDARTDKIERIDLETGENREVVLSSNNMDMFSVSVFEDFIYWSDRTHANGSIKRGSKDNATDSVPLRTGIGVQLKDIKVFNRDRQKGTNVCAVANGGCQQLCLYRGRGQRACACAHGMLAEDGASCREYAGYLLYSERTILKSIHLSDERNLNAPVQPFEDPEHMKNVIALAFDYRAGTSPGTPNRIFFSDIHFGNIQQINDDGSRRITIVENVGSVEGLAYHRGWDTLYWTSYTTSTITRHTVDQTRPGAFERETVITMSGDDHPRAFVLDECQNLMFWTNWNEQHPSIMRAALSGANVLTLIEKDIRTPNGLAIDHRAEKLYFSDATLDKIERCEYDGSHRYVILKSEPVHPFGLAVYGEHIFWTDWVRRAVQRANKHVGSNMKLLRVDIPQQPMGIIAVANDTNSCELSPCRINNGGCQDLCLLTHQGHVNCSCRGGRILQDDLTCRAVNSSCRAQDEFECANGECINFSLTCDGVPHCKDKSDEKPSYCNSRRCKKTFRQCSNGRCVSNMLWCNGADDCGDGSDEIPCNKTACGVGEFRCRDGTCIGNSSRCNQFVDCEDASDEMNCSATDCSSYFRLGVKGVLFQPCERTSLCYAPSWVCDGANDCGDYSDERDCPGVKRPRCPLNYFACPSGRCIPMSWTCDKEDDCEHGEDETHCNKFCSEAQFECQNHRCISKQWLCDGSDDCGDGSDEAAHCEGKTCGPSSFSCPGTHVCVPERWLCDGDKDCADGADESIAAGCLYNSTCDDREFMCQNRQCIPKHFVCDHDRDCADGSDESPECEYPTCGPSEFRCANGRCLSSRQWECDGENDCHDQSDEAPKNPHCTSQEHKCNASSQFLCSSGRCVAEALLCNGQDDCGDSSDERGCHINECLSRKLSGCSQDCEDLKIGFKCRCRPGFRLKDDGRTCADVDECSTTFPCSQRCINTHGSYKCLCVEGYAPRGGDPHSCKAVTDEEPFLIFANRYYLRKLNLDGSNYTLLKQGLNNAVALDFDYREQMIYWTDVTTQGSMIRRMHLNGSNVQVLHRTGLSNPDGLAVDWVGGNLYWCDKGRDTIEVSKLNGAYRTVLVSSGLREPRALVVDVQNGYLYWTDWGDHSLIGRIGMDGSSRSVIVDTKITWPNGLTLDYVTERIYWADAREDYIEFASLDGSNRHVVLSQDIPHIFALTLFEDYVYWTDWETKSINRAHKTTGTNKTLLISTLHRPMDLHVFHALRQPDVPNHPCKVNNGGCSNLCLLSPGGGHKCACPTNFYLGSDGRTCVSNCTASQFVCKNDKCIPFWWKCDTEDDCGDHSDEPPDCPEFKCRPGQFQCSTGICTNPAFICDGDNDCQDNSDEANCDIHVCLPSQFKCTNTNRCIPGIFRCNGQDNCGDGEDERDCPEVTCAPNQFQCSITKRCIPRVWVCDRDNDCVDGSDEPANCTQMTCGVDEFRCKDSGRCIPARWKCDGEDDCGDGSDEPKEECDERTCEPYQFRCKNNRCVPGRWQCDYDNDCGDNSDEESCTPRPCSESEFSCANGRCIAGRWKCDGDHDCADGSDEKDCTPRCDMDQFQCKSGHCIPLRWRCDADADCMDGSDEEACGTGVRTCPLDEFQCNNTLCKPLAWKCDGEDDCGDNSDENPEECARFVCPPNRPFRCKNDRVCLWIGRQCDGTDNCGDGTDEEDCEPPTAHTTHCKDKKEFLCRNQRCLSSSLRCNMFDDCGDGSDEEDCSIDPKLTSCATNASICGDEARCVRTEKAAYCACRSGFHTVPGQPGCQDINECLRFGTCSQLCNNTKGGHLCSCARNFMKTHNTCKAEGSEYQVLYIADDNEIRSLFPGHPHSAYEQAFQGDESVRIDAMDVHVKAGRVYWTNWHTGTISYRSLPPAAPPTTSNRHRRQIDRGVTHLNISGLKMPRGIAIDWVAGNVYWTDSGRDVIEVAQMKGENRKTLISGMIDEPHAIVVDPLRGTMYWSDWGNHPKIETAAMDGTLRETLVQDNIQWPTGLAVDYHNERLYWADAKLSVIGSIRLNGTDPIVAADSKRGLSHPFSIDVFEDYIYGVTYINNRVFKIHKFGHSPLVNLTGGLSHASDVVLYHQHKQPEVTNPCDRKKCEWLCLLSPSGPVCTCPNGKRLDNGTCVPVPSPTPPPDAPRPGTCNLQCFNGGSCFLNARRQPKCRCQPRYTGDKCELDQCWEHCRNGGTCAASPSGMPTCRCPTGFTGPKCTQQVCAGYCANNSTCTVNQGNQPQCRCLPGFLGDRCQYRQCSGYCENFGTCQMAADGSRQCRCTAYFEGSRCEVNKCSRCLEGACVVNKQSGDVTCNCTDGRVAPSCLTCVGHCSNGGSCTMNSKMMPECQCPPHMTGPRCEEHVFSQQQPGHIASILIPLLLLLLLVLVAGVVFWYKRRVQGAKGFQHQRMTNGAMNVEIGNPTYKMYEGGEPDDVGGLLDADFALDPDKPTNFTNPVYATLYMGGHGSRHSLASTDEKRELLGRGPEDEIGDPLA

In test [1], “14-1B R76E PAI-1 (from UniProt P05121 24-402)” showed a pKd of 5.75. This substance registered a Fold change in test [2] of 32 fold.
